Four molecules from US20140287471A1, “VARIANT CBH I POLYPEPTIDES WITH REDUCED PRODUCT INHIBITION” (BP CORPORATION NORTN AMERICA INC., priority 2011, published 2014) can be followed below.

Test [1] can be described thus: 4-MUL cellobiose tolerance/inhibition assay, dose-response IC50 (Example 2). The test is classed as biochemical. The note with it: primary screening, n=1; for Tolerance at 1 mM CB (MUL Data): 1 mM cellobiose; for IC50: 10 μL enzyme, cellobiose range 0.0001-100 mM, read-out: IC50 (MUL Data). A digest of the protocol: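 CBH I variant supernatants (5 μg/mL final, or undiluted if lower) on 0.5 mM 4-MUL in 100 mM MES pH 6 with 25 mM gluconolactone, fluorescence ex/em 365/450 nm. Activity measured at 6–8 cellobiose levels up to 100 mM; IC50 from four-parameter fit, bottom constrained to knockout background.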

Test [2] in a line: 4-MUL assay, specific activity (Example 2). The test is classed as biochemical. The conditions noted are these: primary screening; 10 μL enzyme; n=1. Here is the method: CBH I activity on was measured using the 4-MUL assay using gluconolactone to inhibit any BG activity. The fluorogenic 4-MUL substrate (SIGMA) was prepared at 100 mM concentration in DMSO. Assays were run in black 96-well-flat-bottomed plates (Costar) and 4-MU fluorescence was read on a BioTek H4 plate reader (ex/em 365/450 nm). Assay plates were filled with buffer (final concentrations of 100 mM MES, pH 6, 25 mM gluconolactone, with or without cellobiose; cellobiose concentrations are listed with appropriate data sets), to which enzyme mixture was added (10-30 μl, 5 μg/mL final) and then assays were initiated by addition of 4-MUL (0.5 mM final concentration in 100 μl total volume). Enzyme mixtures were either CBH I variants from harvested supernatants or standards. Standards included: a negative control, consisting of harvested supernatant from the CBH I knock-out strain; a positive control, consisting of wild-type CBH I from harvested supernatants; and, a commercial CBH I standard (E-CBHI from Megazymes). Activity standards were run by serial dilution of commercial CBH I from 40 to 0.02 μg/mL and 4-MU (SIGMA, prepared at 20 mM in DMSO) (in dilution increments of 2-fold; all dilutions were made using harvested supernatant from the knock-out control). Kinetic rates were monitored over the first 15 mins following 4-MUL addition; initial rates were calculated based on data in the linear range. After 1 hr, a final endpoint read was taken, both before and after reaction quenching (100 μL of 200 mM Sodium Carbonate, pH 10.0). Activity was calculated for kinetic and endpoint reads; background resulting from the CBH I knock-out supernatant remained negligible. 4MU standard curves and HPLC quantification values were used to calculate specific activity.
The specific activity (SA) of the variant library was evaluated in a secondary 4-MUL assay. […] On average, a mutation at position 268 increases the specific activity by 2.5 fold over that of wild type. A mutation at 268 in combination with 411 is around 1.5-1.6 fold higher than wild-type, on average.

B1: 268_+411A Arg (protein, UniProt P62694 18-513, looked up, variant R411A)
Exoglucanase 1: QSACTLQSETHPPLTWQKCSSGGTCTQQTGSVVIDANWRWTHATNSSTNCYDGNTWSSTLCPDNETCAKNCCLDGAAYASTYGVTTSGNSLSIGFVTQSAQKNVGARLYLMASDTTYQEFTLLGNEFSFDVDVSQLPCGLNGALYFVSMDADGGVSKYPTNTAGAKYGTGYCDSQCPRDLKFINGQANVEGWEPSSNNANTGIGGHGSCCSEMDIWEANSISEALTPHPCTTVGQEICEGDGCGGTYSDNRYGGTCDPDGCDWNPYRLGNTSFYGPGSSFTLDTTKKLTVVTQFETSGAINRYYVQNGVTFQQPNAELGSYSGNELNDDYCTAEEAEFGGSSFSDKGGLTQFKKATSGGMVLVMSLWDDYYANMLWLDSTYPTNETSSTPGAVAGSCSTSSGVPAQVESQSPNAKVTFSNIKFGPIGSTGNPSGGNPPGGNRGTTTTRRPATTTGSSPGPTQSHYGQCGGIGYSGPTVCASGTTCQVLNPYYSQCL
On to B1, for which, in test [1], the “Tolerance at 1 mM CB (MUL Data)” value stood at 72% and the IC50 (in general, the concentration at which inhibition is half-maximal) came out at 1.6 mM. Also, the “SA (μmol 4 MU/min/mg) (MUL Data)” value in test [2] is 0.38 μmol 4 MU/min/mg.

B2: 268A+411— Ile (protein, UniProt P62694 18-513, looked up, variant R268A R411I)
Exoglucanase 1: QSACTLQSETHPPLTWQKCSSGGTCTQQTGSVVIDANWRWTHATNSSTNCYDGNTWSSTLCPDNETCAKNCCLDGAAYASTYGVTTSGNSLSIGFVTQSAQKNVGARLYLMASDTTYQEFTLLGNEFSFDVDVSQLPCGLNGALYFVSMDADGGVSKYPTNTAGAKYGTGYCDSQCPRDLKFINGQANVEGWEPSSNNANTGIGGHGSCCSEMDIWEANSISEALTPHPCTTVGQEICEGDGCGGTYSDNAYGGTCDPDGCDWNPYRLGNTSFYGPGSSFTLDTTKKLTVVTQFETSGAINRYYVQNGVTFQQPNAELGSYSGNELNDDYCTAEEAEFGGSSFSDKGGLTQFKKATSGGMVLVMSLWDDYYANMLWLDSTYPTNETSSTPGAVIGSCSTSSGVPAQVESQSPNAKVTFSNIKFGPIGSTGNPSGGNPPGGNRGTTTTRRPATTTGSSPGPTQSHYGQCGGIGYSGPTVCASGTTCQVLNPYYSQCL
Take B2: in test [1], the “Tolerance at 1 mM CB (MUL Data)” value was 107% and the IC50 came out at 28 mM. Also, the “SA (μmol 4 MU/min/mg) (MUL Data)” value in test [2] amounted to 0.58 μmol 4 MU/min/mg.

B3: 268A+411— Ala (protein, UniProt P62694 18-513, looked up, variant R268A R411A)
Exoglucanase 1: QSACTLQSETHPPLTWQKCSSGGTCTQQTGSVVIDANWRWTHATNSSTNCYDGNTWSSTLCPDNETCAKNCCLDGAAYASTYGVTTSGNSLSIGFVTQSAQKNVGARLYLMASDTTYQEFTLLGNEFSFDVDVSQLPCGLNGALYFVSMDADGGVSKYPTNTAGAKYGTGYCDSQCPRDLKFINGQANVEGWEPSSNNANTGIGGHGSCCSEMDIWEANSISEALTPHPCTTVGQEICEGDGCGGTYSDNAYGGTCDPDGCDWNPYRLGNTSFYGPGSSFTLDTTKKLTVVTQFETSGAINRYYVQNGVTFQQPNAELGSYSGNELNDDYCTAEEAEFGGSSFSDKGGLTQFKKATSGGMVLVMSLWDDYYANMLWLDSTYPTNETSSTPGAVAGSCSTSSGVPAQVESQSPNAKVTFSNIKFGPIGSTGNPSGGNPPGGNRGTTTTRRPATTTGSSPGPTQSHYGQCGGIGYSGPTVCASGTTCQVLNPYYSQCL
As to B3, in test [1], the “Tolerance at 1 mM CB (MUL Data)” value is 83% and the half-maximal inhibitory concentration (IC50) was 5.56 mM. Besides, the “SA (μmol 4 MU/min/mg) (MUL Data)” value in test [2] turned out to be 1.19 μmol 4 MU/min/mg.

B4: 268_+411A Pro (protein, UniProt P62694 18-513, looked up, variant R268P R411A)
Exoglucanase 1: QSACTLQSETHPPLTWQKCSSGGTCTQQTGSVVIDANWRWTHATNSSTNCYDGNTWSSTLCPDNETCAKNCCLDGAAYASTYGVTTSGNSLSIGFVTQSAQKNVGARLYLMASDTTYQEFTLLGNEFSFDVDVSQLPCGLNGALYFVSMDADGGVSKYPTNTAGAKYGTGYCDSQCPRDLKFINGQANVEGWEPSSNNANTGIGGHGSCCSEMDIWEANSISEALTPHPCTTVGQEICEGDGCGGTYSDNPYGGTCDPDGCDWNPYRLGNTSFYGPGSSFTLDTTKKLTVVTQFETSGAINRYYVQNGVTFQQPNAELGSYSGNELNDDYCTAEEAEFGGSSFSDKGGLTQFKKATSGGMVLVMSLWDDYYANMLWLDSTYPTNETSSTPGAVAGSCSTSSGVPAQVESQSPNAKVTFSNIKFGPIGSTGNPSGGNPPGGNRGTTTTRRPATTTGSSPGPTQSHYGQCGGIGYSGPTVCASGTTCQVLNPYYSQCL
As to B4, in test [1], the “Tolerance at 1 mM CB (MUL Data)” value is 80% and the IC50 was 7.31 mM. In test [2], the “SA (μmol 4 MU/min/mg) (MUL Data)” value turned out to be 1.80 μmol 4 MU/min/mg.
